Data set [1] concerns the target lamin A peptide LA 572-588;histone octamer (H2A, H2B, H3, H4) (;Xenopus laevis) (UniProt P02545+P84233+P62799+P06897+P02281). As to the kind of experiment: competition (TIRF). As to conditions: EMSA: 150 mM NaCl, 20 mM HEPES pH 7.5, 1 mM DTT, 4 C, 1 h, 6% native PAGE; TIRF buffer not in the material.
Data set [2] addresses lamin A tail LA 430-585;histone octamer (H2A, H2B, H3, H4) (Xenopus laevis) (UniProt P84233+P62799+P06897+P02281). As to the kind of experiment: EMSA. To be noted: 0.05 uM Alexa 488 nucleosome; LA 3.1-400 uM; EMSA: 150 mM NaCl, 20 mM HEPES pH 7.5, 1 mM DTT, 4 C, 1 h, 6% native PAGE; TIRF buffer not in the material. Background: Mobility shift assays separate free from complexed probe on a gel.

The target in data set [3] is lamin A 430–585 C570A, labelled with CF660R (UniProt P02545). As to the kind of experiment: fluorescence correlation spectroscopy (FCS); 500 pM CF660R-labelled LA 430–585 C570A, diffusion time against H2A–H2B concentration; 20 mM HEPES pH 8, 150 mM NaCl, 0.01% Tween20, 2 mM ascorbic acid and methyl viologen; one-to-one binding model.
Data set [4] addresses H4K20C nucleosome labelled with Alexa Fluor 488 (Xenopus laevis). As to the kind of experiment: native gel or EMSA; 4 °C; 150 mM NaCl, 20 mM HEPES pH 7.5, 1 mM DTT; 0.05 µM Alexa 488-labeled nucleosomes with 3.1 µM to 400 µM lamin fragment, 1 h; 6% native PAGE.
For data set [5] the target is unchanged. As to the kind of experiment: TIRF microscopy on micropatterned nucleosomes, competition; as a6 with 1 µM CF660R-labelled LA 430–585 and 0 to 1500 µM unlabelled peptide LA 572–588; ratio of lamin to nucleosome fluorescence fitted with a four-parameter dose–response Hill–Langmuir equation.

pEC50, pIC50, pKd: −log10 of the molar value.

As for 197 bp 601 nucleosome, in data set [1], the negative logarithm of the IC50 (pIC50) (usually the negative decadic logarithm of the IC50, by convention in mol/L) was 5.30. Besides, the pKd (in general, −log10 of the Kd, conventionally taken in molar units) in data set [2] was 4.32.

Substance “H2A–H2B heterodimer (Xenopus laevis) (from UniProt P06897 11-120; P02281 1-126) (complex)” had a pKd in data set [3] of 4.92.

“lamin A 430–585, from the 6xHis-SUMO plasmid, tag cleaved (from UniProt P02545 430-585) (domain or fragment)” gave a pKd in data set [4] of 4.32.

As for “synthetic peptide comprising amino acids 572–588 of lamin A”, the pEC50 (in general, −log10 of the EC50, conventionally taken in molar units) in data set [5] is 5.30.

(Values after PMC12527912.)
